What was measured:
[1] = target: recombinant purified FRα (ECL assay calibrator) (human) (UniProt P15328); test: ECL sandwich capture 6A2.G7 / detection 1C6.E12.G8; calibrator incubated overnight with 10 µg/mL MORAb-003
[2] = target: recombinant purified FRα (ECL assay calibrator) (human) (UniProt P15328); test: ECL sandwich competition; competitors 9F3 capture / 24F12 detection; FRα standard STD08; MORAb-003 10 µg/mL
[3] = target: recombinant purified FRα (ECL assay calibrator) (human) (UniProt P15328); test: ECL sandwich competition; competitors 9F3 capture / 24F12 detection; FRα standard STD07; MORAb-003 50 µg/mL
[4] = target: endogenous folate receptor alpha in human serum and plasma samples (human) (UniProt P15328); test: ECL sandwich competition; competitors 24H8.D3 capture / 19D4.B7 detection; serum of sample #DLSO-015; MORAb-003 100 µg/mL
[5] = target: recombinant purified FRα (ECL assay calibrator) (human) (UniProt P15328); test: ECL sandwich competition; competitors 9F3 capture / 24F12 detection; FRα standard STD05; MORAb-003 50 µg/mL
[6] = target: recombinant purified FRα (ECL assay calibrator) (human) (UniProt P15328); test: ECL sandwich capture 19D4.B7 / detection 6A2.G7; calibrator incubated overnight with 10 µg/mL MORAb-003
[7] = target: endogenous folate receptor alpha in human serum and plasma samples (human) (UniProt P15328); test: ECL sandwich capture 1D2.G8.G10 / detection 19D4.B7; serum incubated overnight with 10 µg/mL MORAb-003
[8] = target: endogenous folate receptor alpha in human serum and plasma samples (human) (UniProt P15328); test: ECL sandwich capture 26A9.C4 / detection 19D4.B7; serum incubated overnight with 10 µg/mL MORAb-003
[9] = target: endogenous folate receptor alpha in human serum and plasma samples (human) (UniProt P15328); test: ECL sandwich capture 19D4.B7 / detection 24H8.D3; serum incubated overnight with 10 µg/mL MORAb-003
[10] = target: endogenous folate receptor alpha in human serum and plasma samples (human) (UniProt P15328); test: ECL sandwich capture 19D4.B7 / detection 1A8.G11.E7; serum incubated overnight with 10 µg/mL MORAb-003
[11] = target: recombinant purified FRα (ECL assay calibrator) (human) (UniProt P15328); test: ECL sandwich capture 30G6.G6.G4.E9 / detection 6A2.G7; calibrator incubated overnight with 10 µg/mL MORAb-003
[12] = target: recombinant purified FRα (ECL assay calibrator) (human) (UniProt P15328); test: ECL sandwich capture 30G6.G6.G4.E9 / detection 19D2.G9; calibrator incubated overnight with 10 µg/mL MORAb-003
[13] = target: recombinant purified FRα (ECL assay calibrator) (human) (UniProt P15328); test: ECL sandwich competition; competitors 9F3 capture / 24F12 detection; FRα standard STD05; MORAb-003 10 µg/mL
[14] = target: recombinant purified FRα (ECL assay calibrator) (human) (UniProt P15328); test: ECL sandwich capture 1C6.E12.G8 / detection 19D4.B7; calibrator incubated overnight with 10 µg/mL MORAb-003
[15] = target: recombinant purified FRα (ECL assay calibrator) (human) (UniProt P15328); test: ECL sandwich capture 28H12.G9 / detection 19D4.B7; calibrator incubated overnight with 10 µg/mL MORAb-003
[16] = target: recombinant purified FRα (ECL assay calibrator) (human) (UniProt P15328); test: ECL sandwich competition; competitors 9F3 capture / 24F12 detection; FRα standard STD04; MORAb-003 10 µg/mL
[17] = target: endogenous folate receptor alpha in human serum and plasma samples (human) (UniProt P15328); test: ECL sandwich competition; competitors 24H8.D3 capture / 19D4.B7 detection; serum samples; MORAb-003 100 µg/mL
[18] = target: endogenous folate receptor alpha in human serum and plasma samples (human) (UniProt P15328); test: ECL sandwich capture 6A2.G7 / detection 1C6.E12.G8; serum incubated overnight with 10 µg/mL MORAb-003
[19] = target: recombinant purified FRα (ECL assay calibrator) (human) (UniProt P15328); test: ECL sandwich capture 6A2.G7 / detection 30G6.G6.G4.E9; calibrator incubated overnight with 10 µg/mL MORAb-003
[20] = target: recombinant purified FRα (ECL assay calibrator) (human) (UniProt P15328); test: ECL sandwich capture 26A9.C4 / detection 30G6.G6.G4.E9; calibrator incubated overnight with 10 µg/mL MORAb-003
[21] = target: recombinant purified FRα (ECL assay calibrator) (human) (UniProt P15328); test: ECL sandwich capture 30G6.G6.G4.E9 / detection 1A8.G11.E7; calibrator incubated overnight with 10 µg/mL MORAb-003
[22] = target: recombinant purified FRα (ECL assay calibrator) (human) (UniProt P15328); test: ECL sandwich capture 19D4.B7 / detection 28H12.G9; calibrator incubated overnight with 10 µg/mL MORAb-003
[23] = target: endogenous folate receptor alpha in human serum and plasma samples (human) (UniProt P15328); test: ECL sandwich capture 28H12.G9 / detection 19D4.B7; serum incubated overnight with 10 µg/mL MORAb-003
[24] = target: endogenous folate receptor alpha in human serum and plasma samples (human) (UniProt P15328); test: ECL sandwich capture 19D4.B7 / detection 19D2.G9; serum incubated overnight with 10 µg/mL MORAb-003

Chain of endogenous folate receptor alpha in human serum and plasma samples (human) (P15328 25-234 limits assumed, form in doubt): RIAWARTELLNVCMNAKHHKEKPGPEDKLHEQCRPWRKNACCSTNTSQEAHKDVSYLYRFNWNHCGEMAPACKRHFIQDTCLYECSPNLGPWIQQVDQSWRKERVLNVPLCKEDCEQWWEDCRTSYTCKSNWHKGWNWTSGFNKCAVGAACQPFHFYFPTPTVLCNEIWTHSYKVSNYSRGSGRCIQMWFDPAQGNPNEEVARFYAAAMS
Chain of recombinant purified FRα (ECL assay calibrator) (human) (P15328 25-234 limits assumed): as the sequence (P15328 25-234 limits assumed, form in doubt) above

Drug Suppression of Cal Signal at 500 pg/mL [1]: 6%
% of signal without MORAb-003 (MORAb-003 interference) [2]: 121%
% of signal without MORAb-003 (MORAb-003 interference) [3]: 88%
percent inhibition (sample #DLSO-015, serum) [4]: 21%
% of signal without MORAb-003 (MORAb-003 interference) [5]: 75%
Drug Suppression of Cal Signal at 500 pg/mL [6]: -9%
Drug suppression of serum [7]: 84.6%
Drug suppression of serum [8]: -59.7%
Drug suppression of serum [9]: 4.49%
Drug suppression of serum [10]: -4.92%
Drug Suppression of Cal Signal at 500 pg/mL [11]: -5%
Drug Suppression of Cal Signal at 500 pg/mL [12]: -5%
% of signal without MORAb-003 (MORAb-003 interference) [13]: 71%
Drug Suppression of Cal Signal at 500 pg/mL [14]: -11%
Drug Suppression of Cal Signal at 500 pg/mL [15]: -17%
% of signal without MORAb-003 (MORAb-003 interference) [16]: 73%
percent inhibition (median, serum) [17]: 3%
Drug suppression of serum [18]: -22.2%
Drug Suppression of Cal Signal at 500 pg/mL [19]: -1%
Drug Suppression of Cal Signal at 500 pg/mL [20]: -28%
Drug Suppression of Cal Signal at 500 pg/mL [21]: 2%
Drug Suppression of Cal Signal at 500 pg/mL [22]: -21%
Drug suppression of serum [23]: -73.2%
Drug suppression of serum [24]: -3.38%
B1: farletuzumab (MORAb-003) (antibody, part only; not given: Constant regions, V domains shown, not shown: another chain or arm of the molecule)
VH: EVQLVESGGGVVQPGRSLRLSCSASGFTFSGYGLSWVRQAPGKGLEWVAMISSGGSYTYYADSVKGRFAISRDNAKNTLFLQMDSLRPEDTGVYFCARHGDDPAWFAYWGQGTPVTVSS
VL: DIQLTQSPSSLSASVGDRVTITCSVSSSISSNNLHWYQQKPGKAPKPWIYGTSNLASGVPSRFSGSGSGTDYTFTISSLQPEDIATYYCQQWSSYPYMYTFGQGTKVEIK
